Assay results: patent US20110071283

Test system: fibrinogen

human thrombin
SDS-PAGE analysis of hydrolysis of fibrinogen (Aα-strand): has a similar strength to human thrombin
